Reference: patent US20230227548A1

Biological target: murine GPRC5D (murine) (UniProt Q9JIL6)
Experiment: FACS, murine GPRC5D cells

murine GPRC5D (murine), sequence (Q9JIL6 whole entry): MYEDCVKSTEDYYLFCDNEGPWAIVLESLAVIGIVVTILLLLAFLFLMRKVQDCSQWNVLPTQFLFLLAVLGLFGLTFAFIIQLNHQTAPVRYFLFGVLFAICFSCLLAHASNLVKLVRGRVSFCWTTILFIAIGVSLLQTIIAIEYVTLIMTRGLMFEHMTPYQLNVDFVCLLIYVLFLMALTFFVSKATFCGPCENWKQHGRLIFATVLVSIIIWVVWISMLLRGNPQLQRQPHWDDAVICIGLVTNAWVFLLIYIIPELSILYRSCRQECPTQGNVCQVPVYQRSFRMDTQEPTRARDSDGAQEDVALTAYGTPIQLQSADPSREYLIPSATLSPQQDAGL

- MFI: 481
B1: GCDB72 (bispecific antibody, IgG4, V domains shown)
VH 1: EVQLVESGGGLVQPGGSLRLSCAASGFTFNTYAMNWVRQAPGKGLEWVARIRSKYNNYATYYAASVKGRFTISRDDSKNSLYLQMNSLKTEDTAVYYCARHGNFGNSYVSWFAYWGQGTLVTVSS
VL 1: QTVVTQEPSLTVSPGGTVTLTCRSSTGAVTTSNYANWVQQKPGQAPRGLIGGTNKRAPGTPARFSGSLLGGKAALTLSGVQPEDEAEYYCALWYSNLWVFGGGTKLTVL
VH 2: QVQLVQSGAEVKKPGASVKVSCKASGYSFTGYTMNWVRQAPGQGLEWMGLINPYNSDTNYAQKLQGRVTMTTDTSTSTAYMELRSLRSDDTAVYYCARVALRVALDYWGQGTLVTVSS
VL 2: DIQMTQSPSSLSASVGDRVTITCKASQNVATHVGWYQQKPGKAPKRLIYSASYRYSGVPSRFSGSGSGTEFTLTISNLQPEDFATYYCQQYNRYPYTFGQGTKLEIK
